Data from patent publication US5668107A, “Compositions and methods for inhibiting elastase” (The UAB Research Foundation, priority 1995, dated 1997).
Where no end group is shown, it is not given here.

Key:
[1] = biological target: T1, HNE (human neutrophil elastase) (Homo sapiens, UniProt P08246); assay: Serine protease assay with p-nitroanilide substrate, HNE; type: biochemical
T1 sequence (P08246 30-267): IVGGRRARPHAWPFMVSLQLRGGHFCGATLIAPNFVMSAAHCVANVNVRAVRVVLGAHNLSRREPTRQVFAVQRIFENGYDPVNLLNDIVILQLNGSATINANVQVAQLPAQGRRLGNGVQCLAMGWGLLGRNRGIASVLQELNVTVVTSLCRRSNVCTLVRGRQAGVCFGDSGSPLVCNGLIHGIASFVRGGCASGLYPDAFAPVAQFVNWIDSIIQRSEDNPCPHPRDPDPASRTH
Description: (§1) Serine protease assays were performed using p-nitroanalide amide substrates. Trypsin activity was assayed by using Benzyl-PHE-VAL-ARG-PNA (0.5 mg/ml). Chymotrypsin activity was assayed by using SUC-(ALA)2 -PRO-PHE-PNA (SEQ ID NO:5) (10 mg/ml in DMSO). Elastase activity was assayed by using SUC-(ALA)3 -PNA (10 mg/ml in DMSO). The dilution of each of these enzymes required to produce a change in absorbance of approximately 0.4 after a 15 min incubation at 37° C. was initially determined. The complete reaction mixture contained 10 μls of this enzyme dilution plus 100 μls of the appropriate above substrate and 0-50 uls of the indicated concentration of inhibitor or TBS to maintain constant volume. Trypsin, chymotrypsin, and HNE assays were incubated at 37° C. for 15 min, while pancreatic elastase assays were incubated at 37° C. for 1.5 min. The reaction was terminated by the addition of a sufficient quantity of ice cold TBS to bring each assay up to a final volume of 1 ml. The absorbance of the p-nitroaniline produced was measured against a distilled water blank at 410 nm on a Hitachi model 100-40 spectrophotometer. Percent inhibition was calculated as: 100-[(A1 E+I/A1 E)×100].

Chymotrypsin [2] = biological target: Chymotrypsin (Bos taurus, UniProt P00766); assay: Serine protease assay with p-nitroanilide substrate, chymotrypsin; type: biochemical
Description: as §1

[3] = biological target: T2, DFP-treated human neutrophil cathepsin G (Homo sapiens, UniProt P08311); assay: ELISA binding to DFP-treated cathepsin G; details: FIG. 3B, 10 μg/ml, corrected for non-specific binding to BSA
T2 sequence (P08311 21-243 limits assumed): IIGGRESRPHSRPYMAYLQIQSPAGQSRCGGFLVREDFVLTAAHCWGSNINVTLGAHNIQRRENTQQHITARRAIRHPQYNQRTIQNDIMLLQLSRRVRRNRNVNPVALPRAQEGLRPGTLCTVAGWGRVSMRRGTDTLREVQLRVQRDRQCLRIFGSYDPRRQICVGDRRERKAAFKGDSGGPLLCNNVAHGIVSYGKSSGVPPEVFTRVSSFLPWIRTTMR
Description: (§2) Plastic microtiter wells were coated overnight at 4° C. with 100 μls of antigens appropriately diluted in PBS. Plates were washed 3× with approximately 300 μls PBS/well. Any remaining reactive sites were blocked by adding 200 μls 1% BSA in PBS/well and incubating for 1 hr at 37° C. The plates were again washed 3× with approximately 300 μls PBS/well. The rabbit anti-human AAT and HSA polyclonal antibodies were diluted 1/40,000 with PBS containing 0.05% Tween-20. 50 μls of this diluted primary antibody was added/appropriate well. The plate was again incubated for 1 hr at 37° C., then washed 3× with approximately 300 μls PBS/well. 50 μls of an appropriately diluted secondary antibody (goat anti-rabbit IgG diluted 1/16,000) was added/well. The plates were again incubated for 1 hr at 37° C., then washed 5× with approximately 300 μls PBS/well. 50 μls of color developing ortho-phenylenediamine (OPD) solution was added/well. The plates were incubated for 30 min at 37° C. The reaction was finally stopped by the addition of 50 μls/well of 4.5M sulfuric acid and read at 492 nm.
(§3) An ELISA was also developed to quantitate the potential binding affinity of various antigens for AAT (SEQ ID NO:1) and/or SPAAT (SEQ ID NO:4). […]

Trypsin = biological target: T3, Trypsin (Bos taurus, UniProt P00760); assay: Serine protease assay with p-nitroanilide substrate, trypsin; type: biochemical; details: FIG. 2, preliminary enzyme kinetic experiments, desalted SPAAT preparations
T3 construct: gene PRSS1
T3 sequence (P00760 24-246): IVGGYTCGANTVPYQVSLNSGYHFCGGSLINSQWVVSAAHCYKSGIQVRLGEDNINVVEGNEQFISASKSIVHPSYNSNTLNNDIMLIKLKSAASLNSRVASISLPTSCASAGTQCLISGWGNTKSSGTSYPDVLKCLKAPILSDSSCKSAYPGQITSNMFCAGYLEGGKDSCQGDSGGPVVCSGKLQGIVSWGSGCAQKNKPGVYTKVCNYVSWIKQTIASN
Description: as §1

[4] = biological target: T4, DFP-treated human neutrophil elastase (Homo sapiens, UniProt P08246); assay: ELISA binding to DFP-treated HNE; details: FIG. 3A, 10 μg/ml, corrected for non-specific binding to BSA
T4 sequence (P08246 30-247 limits assumed): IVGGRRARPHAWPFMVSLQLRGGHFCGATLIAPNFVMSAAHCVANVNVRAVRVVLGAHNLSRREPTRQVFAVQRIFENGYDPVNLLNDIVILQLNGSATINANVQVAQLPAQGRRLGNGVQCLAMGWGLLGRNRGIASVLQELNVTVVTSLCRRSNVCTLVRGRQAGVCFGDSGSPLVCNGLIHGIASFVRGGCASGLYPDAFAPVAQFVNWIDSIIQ
Description: as §2, §3

Pancreatic elastase = Pancreatic elastase (Homo sapiens, UniProt Q9UNI1); assay: Serine protease assay with p-nitroanilide substrate, pancreatic elastase; type: biochemical; details: FIG. 2, preliminary enzyme kinetic experiments, desalted SPAAT preparations
Description: as §1

Chymotrypsin [5] = assay: enzyme inhibition kinetics with chymotrypsin, p-nitroanilide substrate
[6] = biological target: human neutrophil elastase (active enzyme) (human) (UniProt P08246)
[7] = FIG. 2, preliminary enzyme kinetic experiments, desalted SPAAT preparations

Sequence of Pancreatic elastase (Q9UNI1 19-258): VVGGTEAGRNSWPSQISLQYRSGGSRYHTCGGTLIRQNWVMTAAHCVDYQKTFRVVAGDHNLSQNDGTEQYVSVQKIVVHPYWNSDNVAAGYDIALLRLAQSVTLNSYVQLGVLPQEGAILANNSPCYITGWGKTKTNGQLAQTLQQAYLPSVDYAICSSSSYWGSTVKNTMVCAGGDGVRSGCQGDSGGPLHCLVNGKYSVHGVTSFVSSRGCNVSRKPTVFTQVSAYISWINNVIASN

With “MFLEAIPMSIPPQVKFNKPFVFLMIEQNTKSPLFMGKVVNPTQK [chemically synthesized SPAAT]” the “effectiveness as inhibitor of HNE relative to SPAAT isolated from placenta, mole-for-mole” value ([1]; ratio of the KI values) was “eight-fold less effective”.

For “SPAAT: 44-residue C-terminal fragment of α1 antitrypsin (MET-351 to LYS-394); desalted preparations isolated from human placenta (MFLEAIPMSIPPQVKFNKPFVFLMIEQNTKSPLFMGKVVNPTQK)”, the “inhibition of chymotrypsin (rank order of inhibition)” value (Chymotrypsin [2]; [7]) was “chymotrypsin>HNE>pancreatic elastase”, the “KI relative to Km, competitive inhibitor of chymotrypsin” value (Chymotrypsin [2]; preliminary calculations from inhibitor concentrations required to totally inhibit chymotrypsin) was ~ 1/10 and the “binding to DFP-treated cathepsin G” value [3] was “bound”. For the same molecule, the effect on trypsin (Trypsin) was “no effect”, the “inhibition of HNE activity (compared with native AAT)” value [1, 7] was “almost as well as native AAT” and the “binding to DFP-treated HNE” value [4] was “bound”. The “inhibition of pancreatic elastase (rank order of inhibition)” value (Pancreatic elastase) was “chymotrypsin>HNE>pancreatic elastase”.

Molecule “placental SPAAT: SPAAT isolated from human placenta, associated with collagen in the placental material (MFLEAIPMSIPPQVKFNKPFVFLMIEQNTKSPLFMGKVVNPTQK)” has a Ki (Chymotrypsin [2]; chymotrypsin as the subject enzyme) of 920 nM.

In the case of “α1 Antitrypsin (AMFLEAIPMSIPPEVKFNKPFVFLMIEQNTKSPLFMGKVVNPTQK) [AAT]”, the “binding to DFP-treated cathepsin G” value [3] is reported as “bound” and the “binding to DFP-treated HNE” value [4] is reported as “bound”.

MFLEAIPMSIPPQVKFNKPFVFLMIEQNTKSPLFMGKVVNPTQK [chemically synthesized SPAAT] was tested, and the Ki (Chymotrypsin [5]) was 7500 nM and the inhibitory effectiveness, mole-for-mole [6] was 8 fold.

With MFLEAIPMSIPPQVKFNKPFVFLMIEQNTKSPLFMGKVVNPTQK [SPAAT isolated from human placenta (44-residue C-terminal fragment of alpha1 antitrypsin)] the Ki (Chymotrypsin [5]) was 920 nM.
